Key:
Human C5 [1] = molecular target: T1, Human C5 (human, UniProt P01031 19-1676); test: SPR, mAb captured by anti-hFc, 37C
T1 construct: The natural protein has a beta and an alpha chain; also called complement factor 5; complement component 5
Summary of the method: (§1)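 Antibodies captured on anti-human Fc surface in HBST (HEPES pH 7.4, 3 mM EDTA); C5 reagents (commercial human C5 or myc-myc-His-tagged variants) associated 3 min, dissociated 8 min, at 25 °C or 37 °C. Sensorgrams fitted 1:1; KD = kd/ka, t½ = ln2/(60×kd).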

Human C5 [2] = molecular target: T1, Human C5; test: SPR, mAb captured by anti-hFc, 25C
Summary of the method: as §1

monkey C5-mmh [3] = molecular target: T2, monkey C5-mmh (monkey, UniProt P01031 19-1676 (human entry), limits assumed); test: SPR, mAb captured by anti-hFc, 25C
T2 construct: Expressed with a C-terminal myc-myc-hexahistidine tag
T2 chain: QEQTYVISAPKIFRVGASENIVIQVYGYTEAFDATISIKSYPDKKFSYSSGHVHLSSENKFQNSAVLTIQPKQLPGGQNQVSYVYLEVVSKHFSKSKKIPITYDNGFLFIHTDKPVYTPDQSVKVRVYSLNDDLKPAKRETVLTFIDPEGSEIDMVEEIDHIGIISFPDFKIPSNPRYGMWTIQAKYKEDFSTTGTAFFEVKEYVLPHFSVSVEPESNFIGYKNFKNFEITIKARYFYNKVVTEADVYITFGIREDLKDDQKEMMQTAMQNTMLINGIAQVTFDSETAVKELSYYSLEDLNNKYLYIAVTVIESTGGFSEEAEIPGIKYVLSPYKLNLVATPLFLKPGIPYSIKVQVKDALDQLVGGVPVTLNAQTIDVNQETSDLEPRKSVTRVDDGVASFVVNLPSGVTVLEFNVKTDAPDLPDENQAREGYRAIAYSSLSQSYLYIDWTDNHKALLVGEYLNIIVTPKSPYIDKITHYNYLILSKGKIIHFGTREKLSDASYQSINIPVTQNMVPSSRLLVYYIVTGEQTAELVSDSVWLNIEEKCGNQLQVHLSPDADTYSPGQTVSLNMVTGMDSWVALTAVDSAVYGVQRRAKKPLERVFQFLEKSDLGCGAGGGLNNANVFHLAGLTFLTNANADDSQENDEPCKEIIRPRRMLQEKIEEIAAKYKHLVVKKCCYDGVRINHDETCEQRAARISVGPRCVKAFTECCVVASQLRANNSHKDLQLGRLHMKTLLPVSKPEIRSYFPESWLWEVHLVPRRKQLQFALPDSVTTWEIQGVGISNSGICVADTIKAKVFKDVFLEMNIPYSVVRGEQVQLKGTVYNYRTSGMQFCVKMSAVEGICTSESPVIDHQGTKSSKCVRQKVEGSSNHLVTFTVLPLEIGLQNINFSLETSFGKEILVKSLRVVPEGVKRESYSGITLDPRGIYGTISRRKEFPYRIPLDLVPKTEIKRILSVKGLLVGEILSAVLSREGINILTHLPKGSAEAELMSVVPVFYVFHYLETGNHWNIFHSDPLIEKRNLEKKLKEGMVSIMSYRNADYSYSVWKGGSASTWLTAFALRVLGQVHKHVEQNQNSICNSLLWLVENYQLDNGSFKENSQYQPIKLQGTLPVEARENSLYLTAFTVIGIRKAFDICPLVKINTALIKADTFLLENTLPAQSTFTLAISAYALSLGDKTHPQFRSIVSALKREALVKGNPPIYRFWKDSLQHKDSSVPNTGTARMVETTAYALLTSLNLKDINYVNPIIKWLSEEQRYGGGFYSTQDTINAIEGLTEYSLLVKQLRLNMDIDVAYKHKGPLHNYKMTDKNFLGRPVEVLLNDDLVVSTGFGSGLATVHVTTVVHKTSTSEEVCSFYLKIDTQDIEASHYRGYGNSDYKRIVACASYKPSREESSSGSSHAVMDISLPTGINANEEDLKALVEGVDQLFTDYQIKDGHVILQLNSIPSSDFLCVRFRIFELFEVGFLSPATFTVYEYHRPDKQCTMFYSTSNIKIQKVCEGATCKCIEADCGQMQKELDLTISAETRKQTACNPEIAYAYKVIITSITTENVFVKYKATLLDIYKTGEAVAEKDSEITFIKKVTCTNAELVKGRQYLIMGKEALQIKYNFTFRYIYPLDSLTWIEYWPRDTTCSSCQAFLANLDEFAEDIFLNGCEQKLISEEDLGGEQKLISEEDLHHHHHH
Summary of the method: as §1

human C5 R885C-mmh [4] = molecular target: T3, human C5 R885C-mmh (human, UniProt P01031 19-1676); test: SPR, mAb captured via anti-hFc, 37C
T3 construct: also called human C5 variant R885C
Description: (§2) Equilibrium dissociation constants (KD values) for C5 binding to purified anti-C5 antibodies were determined using a real-time surface plasmon resonance biosensor assay on a Biacore T200 instrument. The Biacore sensor surface was derivatized by amine coupling with a monoclonal mouse anti-human Fc antibody (GE Healthcare, # BR-1008-39) to capture anti-C5 antibodies expressed with human Fc constant regions. Biacore binding studies were conducted in HBST running buffer (0.01M HEPES pH 7.4, 0.15M NaCl, 3 mM EDTA, 0.05% v/v Surfactant P20).
(§3) Human C5 was obtained from a commercial source (EMD). Other C5 reagents were expressed with a C-terminal myc-myc-hexahistidine tag (subsequently referred to as C5-mmh). […] Association of all the C5 reagents to each of the captured monoclonal antibodies was monitored for 3 minutes and their dissociation in HBST running buffer was monitored for 8 minutes. All the binding kinetics experiments were performed at either 25° C. or 37° C. Kinetic association (kₐ) and dissociation (kd) rate constants were determined by fitting the real-time sensorgrams to a 1:1 binding model using Scrubber 2.0c curve fitting software. Binding dissociation equilibrium constants (KD) and dissociative half-lives (t %) were calculated from the kinetic rate constants as: KD (M)=kd/kₐ and t_{1/2} (min)=In2/(60×kd)

human C5 R885H-mmh [5] = molecular target: T4, human C5 R885H-mmh (human, UniProt P01031 19-1676); test: SPR, mAb captured via anti-hFc, 37C
T4 construct: also called human C5 variant R885H
Description: as §2, §3

monkey C5-mmh [6] = molecular target: T5, monkey C5-mmh (monkey, UniProt P01031 19-1676 (human entry), limits assumed); test: SPR, mAb captured via anti-hFc, 37C
T5 construct: Recombinant monkey C5 with a C-terminal myc-myc-hexahistidine tag
T5 chain: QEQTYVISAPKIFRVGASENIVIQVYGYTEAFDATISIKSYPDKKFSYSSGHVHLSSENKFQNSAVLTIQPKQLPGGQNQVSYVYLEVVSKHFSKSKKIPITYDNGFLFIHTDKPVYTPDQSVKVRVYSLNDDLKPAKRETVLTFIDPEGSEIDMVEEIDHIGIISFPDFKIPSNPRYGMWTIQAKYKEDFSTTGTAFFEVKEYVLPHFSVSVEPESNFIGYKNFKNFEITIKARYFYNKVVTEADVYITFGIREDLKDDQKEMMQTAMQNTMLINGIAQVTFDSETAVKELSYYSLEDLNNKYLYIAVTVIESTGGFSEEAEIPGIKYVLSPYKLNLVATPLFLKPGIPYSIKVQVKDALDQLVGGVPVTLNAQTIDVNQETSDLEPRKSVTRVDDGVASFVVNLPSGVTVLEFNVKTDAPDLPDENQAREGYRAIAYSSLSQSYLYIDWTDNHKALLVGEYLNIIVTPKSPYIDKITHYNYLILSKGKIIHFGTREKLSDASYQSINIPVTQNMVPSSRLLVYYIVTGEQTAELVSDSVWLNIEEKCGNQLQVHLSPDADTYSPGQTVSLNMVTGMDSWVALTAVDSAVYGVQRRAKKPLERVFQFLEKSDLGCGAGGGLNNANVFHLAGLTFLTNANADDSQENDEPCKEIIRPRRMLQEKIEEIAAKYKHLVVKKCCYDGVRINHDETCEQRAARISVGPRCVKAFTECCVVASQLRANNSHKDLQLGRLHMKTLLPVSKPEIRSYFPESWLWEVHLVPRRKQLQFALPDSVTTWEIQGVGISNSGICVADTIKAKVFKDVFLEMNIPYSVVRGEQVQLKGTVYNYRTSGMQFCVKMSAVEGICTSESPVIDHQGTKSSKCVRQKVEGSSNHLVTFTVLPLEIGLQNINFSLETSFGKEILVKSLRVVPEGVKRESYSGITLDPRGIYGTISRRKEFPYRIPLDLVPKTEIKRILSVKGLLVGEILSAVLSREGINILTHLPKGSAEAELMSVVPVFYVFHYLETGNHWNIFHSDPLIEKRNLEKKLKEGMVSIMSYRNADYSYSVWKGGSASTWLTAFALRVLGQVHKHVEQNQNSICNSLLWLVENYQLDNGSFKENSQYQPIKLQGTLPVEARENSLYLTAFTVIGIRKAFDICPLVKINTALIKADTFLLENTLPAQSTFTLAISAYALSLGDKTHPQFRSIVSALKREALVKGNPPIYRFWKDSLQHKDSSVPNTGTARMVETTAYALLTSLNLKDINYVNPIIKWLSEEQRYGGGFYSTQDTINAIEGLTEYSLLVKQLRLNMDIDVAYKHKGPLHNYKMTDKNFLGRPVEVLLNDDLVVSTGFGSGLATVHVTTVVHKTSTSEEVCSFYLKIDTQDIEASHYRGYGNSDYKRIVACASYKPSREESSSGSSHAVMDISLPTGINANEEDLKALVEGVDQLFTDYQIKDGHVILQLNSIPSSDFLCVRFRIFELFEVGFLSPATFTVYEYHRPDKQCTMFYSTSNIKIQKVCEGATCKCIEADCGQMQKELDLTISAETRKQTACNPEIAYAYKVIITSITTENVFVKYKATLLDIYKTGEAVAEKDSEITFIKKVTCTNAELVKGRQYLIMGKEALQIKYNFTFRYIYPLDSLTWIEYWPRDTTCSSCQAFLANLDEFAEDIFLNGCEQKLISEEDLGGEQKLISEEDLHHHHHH
Description: as §2, §3

human C5 R885C-mmh [7] = molecular target: T3, human C5 R885C-mmh; test: SPR, mAb captured via anti-hFc, 25C
Description: as §2, §3

human C5 R885H-mmh [8] = molecular target: T4, human C5 R885H-mmh; test: SPR, mAb captured via anti-hFc, 25C
Description: as §2, §3

B1: H4H12161P (antibody, human IgG4, V domains shown)
VH: EVQLVESGGDLVQPGGSLRLSCAASGFTFSDHYMDWVRQAPGKGLDWIGRIRNKANAYNTEYAASVRGRFTISRDDSQNLLYLQMNSLKTDDTAVYYCVRVWNYAYFAMDVWGQGTTVTVSS
VL: DIQMTQSPSSLSASVGDRVTITCRSSQNIGIFLNWYQQKPGEAPNLLISAASSLHSGVPSRFSGSGSGTDFTLTIGSLQPEDFATYYCQQTYNTIFTFGPGTKVDIK
In the case of B1, the “100 nM Human C5 Bound (RU)” value (Human C5 [1]) is reported as 66 RU, the Kd (Human C5 [1]) is reported as 0.99 nM and the koff (Human C5 [1]) is reported as 0.000115 s⁻¹. The kon (Human C5 [1]) was 116000 M⁻¹ s⁻¹, the t½ (Human C5 [1]) was 1.68 h and the “100 nM Human C5 Bound (RU)” value (Human C5 [2]) was 64 RU. The Kd (Human C5 [2]) was 0.17 nM, the koff (Human C5 [2]) was 4.37e-05 s⁻¹ and the kon (Human C5 [2]) was 258000 M⁻¹ s⁻¹. For the same binder, the t½ (Human C5 [2]) was 4.4 h, the “100 nM monkey C5-mmh Bound (RU)” value (monkey C5-mmh [3]) was 45 RU and the Kd (monkey C5-mmh [3]) was 0.392 nM. The koff (monkey C5-mmh [3]) was 2.48e-05 s⁻¹, the kon (monkey C5-mmh [3]) was 63300 M⁻¹ s⁻¹ and the “t1/2” value (monkey C5-mmh [3]) was 7.75 h.

B2: H4H12161P (antibody, human IgG4, V domains shown)
VH: EVQLVESGGDLVQPGGSLRLSCAASGFTFSDHYMDWVRQAPGKGLDWIGRIRNKANAYNTEYAASVRGRFTISRDDSQNLLYLQMNSLKTDDTAVYYCVRVWNYAYFAMDVWGQGTTVTVSS
VL: DIQMTQSPSSLSASVGDRVTITCRSSQNIGIFLNWYQQKPGEAPNLLISAASSLHSGVPSRFSGSGSGTDFTLTIGSLQPEDFATYYCQQTYNTIFTFGPGTKVDIK
notes: Human IgG4 Fc with S108P hinge mutation (H4H)
With B2 the “100 nM Human C5 R885C-mmh Bound (RU)” value (human C5 R885C-mmh [4]) was 49 RU, the Kd (human C5 R885C-mmh [4]) was 8.17 nM and the koff (human C5 R885C-mmh [4]) was 0.000901 s⁻¹. The kon (human C5 R885C-mmh [4]) was 110000 M⁻¹ s⁻¹, the t1/2 (human C5 R885C-mmh [4]) was 0.217 h and the “100 nM Human C5 R885H-mmh Bound (RU)” value (human C5 R885H-mmh [5]) was 54 RU. It also gave a Kd (human C5 R885H-mmh [5]) of 7.84 nM, a koff (human C5 R885H-mmh [5]) of 0.000925 s⁻¹ and a kon (human C5 R885H-mmh [5]) of 118000 M⁻¹ s⁻¹. For the same binder, the t1/2 (human C5 R885H-mmh [5]) was 0.2 h, the “100 nM monkey C5-mmh Bound (RU)” value (monkey C5-mmh [6]) was 53 RU and the Kd (monkey C5-mmh [6]) was 5.56 nM. The koff (monkey C5-mmh [6]) was 0.000745 s⁻¹, the kon (monkey C5-mmh [6]) was 134000 M⁻¹ s⁻¹ and the t1/2 (monkey C5-mmh [6]) was 0.267 h. The “100 nM Human C5 R885C-mmh Bound (RU)” value (human C5 R885C-mmh [7]) was 147 RU, the Kd (human C5 R885C-mmh [7]) was 0.672 nM and the koff (human C5 R885C-mmh [7]) was 8.71e-05 s⁻¹. The kon (human C5 R885C-mmh [7]) was 130000 M⁻¹ s⁻¹, the t1/2 (human C5 R885C-mmh [7]) was 2.22 h and the “100 nM Human C5 R885H-mmh Bound (RU)” value (human C5 R885H-mmh [8]) was 199 RU. The Kd (human C5 R885H-mmh [8]) was 0.996 nM, the koff (human C5 R885H-mmh [8]) was 8.32e-05 s⁻¹ and the kon (human C5 R885H-mmh [8]) was 83600 M⁻¹ s⁻¹. It also gave a t1/2 (human C5 R885H-mmh [8]) of 2.32 h.
